Source: patent publication US20040142445

B1: MDTS6TSP1 protein (protein)
chain: FVSIPRYVETLVVADESMVKFHGADLEHYLLTLLATAARLYRHPSILNPINIVVVKVLLLRDRDSGPKVTGNAALTLRNFCAWQKKLNKVSDKHPEYWDTAILFTRQDLCGATTCDTLGMADVGTMCDPKRSCSVIEDDGLPSAFTTAHELGHVFNMPHDNVKVCEEVFGKLRANHMMSPTLIQIDRANPWSACSAAIITDFLDSGHGDCLLDQPSKPISLPEDLPGASYTLSQQCELAFGVGSKPCPYMQYCTKLWCTGKAKGQMVCQTRHFPWADGTSCGEGKLCLKGACVERHNLNKHRVDGSWAKWDPYGPCSRTCGGGVQLARRQCTNPTPANGGKYCEGVRVKYRSCNLEPCPSSASGKSFREEQ
B2: MDTS6Pro (protein)
chain: FVSIPRYVETLVVADESMVKFHGADLEHYLLTLLATAARLYRHPSILNPINIVVVKVLLLRDRDSGPKVTGNAALTLRNFCAWQKKLNKVSDKHPEYWDTAILFTRQDLCGATTCDTLGMADVGTMCDPKRSCSVIEDDGLPSAFTTAHELGHVFNMPHDNVKVCEEVFGKLRANHMMSPTLIQIDRANPWSACSAAIITDFLDSGHGDCLLDQPSKPISLPEDLPGASYTLSQQGSAAADYKDDDDK
B3: MDTS6Cys (protein)
chain: FVSIPRYVETLVVADESMVKFHGADLEHYLLTLLATAARLYRHPSILNPINIVVVKVLLLRDRDSGPKVTGNAALTLRNFCAWQKKLNKVSDKHPEYWDTAILFTRQDLCGATTCDTLGMADVGTMCDPKRSCSVIEDDGLPSAFTTAHELGHVFNMPHDNVKVCEEVFGKLRANHMMSPTLIQIDRANPWSACSAAIITDFLDSGHGDCLLDQPSKPISLPEDLPGASYTLSQQCELAFGVGSKPCPYMQYCTKLWCTGKAKGQMVCQTRHFPWADGTSCGEGKLCLKGACVERHNLNKHRVDGSWAKWDPYGPCSRTCGGGVQLARRQCTNPTPANGGKYCEGVRVKYRSCNLEPCPSSASGKSFREEQCEAFNGYNHSTNRLTLAVAWVPKYSGVSPRDKCKLICRANGTGYFYVLAPKVVDGTLCSPDSTSVCVQGKCIKAGCDGNLGSKKRFDKCGVCGGDNKSCKKVTGGSAAADYKDDDDK
B4: MDTS6Dis (protein)
chain: FVSIPRYVETLVVADESMVKFHGADLEHYLLTLLATAARLYRHPSILNPINIVVVKVLLLRDRDSGPKVTGNAALTLRNFCAWQKKLNKVSDKHPEYWDTAILFTRQDLCGATTCDTLGMADVGTMCDPKRSCSVIEDDGLPSAFTTAHELGHVFNMPHDNVKVCEEVFGKLRANHMMSPTLIQIDRANPWSACSAAIITDFLDSGHGDCLLDQPSKPISLPEDLPGASYTLSQQCELAFGVGSKPCPYMQYCTKLWCTGKAKGQMVCQTRHFPWADGTSCGEGKLCLKGACVERHNLNKHRVDGSGSAAADYKDDDDK

Key:
[1] = target: recombinant aggrecan G1G2, P16112
[2] = target: natural type aggrecan (mfd. by Seikagaku Kogyo)

Sequence of recombinant aggrecan G1G2, P16112 (P16112 20-675): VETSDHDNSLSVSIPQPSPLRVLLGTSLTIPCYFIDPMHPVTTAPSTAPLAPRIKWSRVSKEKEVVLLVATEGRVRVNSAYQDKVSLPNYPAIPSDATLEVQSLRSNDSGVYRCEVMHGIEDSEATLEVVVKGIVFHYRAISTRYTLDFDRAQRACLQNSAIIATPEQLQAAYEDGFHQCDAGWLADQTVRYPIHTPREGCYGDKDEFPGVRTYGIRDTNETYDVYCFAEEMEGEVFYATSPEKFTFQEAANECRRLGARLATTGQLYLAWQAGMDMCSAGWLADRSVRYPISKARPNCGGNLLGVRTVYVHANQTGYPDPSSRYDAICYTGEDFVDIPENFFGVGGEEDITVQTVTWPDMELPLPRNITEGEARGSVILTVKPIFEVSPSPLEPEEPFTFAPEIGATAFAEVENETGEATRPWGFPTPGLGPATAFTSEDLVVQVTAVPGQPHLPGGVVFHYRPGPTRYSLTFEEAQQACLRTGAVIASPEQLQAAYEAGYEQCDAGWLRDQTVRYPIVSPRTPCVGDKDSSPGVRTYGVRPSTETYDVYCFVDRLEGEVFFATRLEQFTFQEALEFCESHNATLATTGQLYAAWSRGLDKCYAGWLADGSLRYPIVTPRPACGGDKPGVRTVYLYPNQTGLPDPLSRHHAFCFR

Protein	recombinant aggrecan G1G2 degrading activity (western blot, anti-His detection) [1]	aggrecanase activity (method of Example 7-3, neoepitope western blot) [1]	cleavage at the aggrecanase site (western blot) [1]	cleavage at the aggrecanase site (western blot) [2]	degradation of natural type aggrecan (neoepitope western blot) [2]
B1	degraded fragment of the recombinant aggrecan, which was not found in the control in which only the expression plasmid was introduced, was detected	–	–	–	–
B2	–	the aggrecanase activity was not detected in the culture supernatants in which MDTS6Pro and MDTS6Dis were expressed	–	–	–
B3	–	the aggrecanase activity was detected in the culture supernatant in which MDTS6Cys was expressed	the recombinant aggrecan G1G2 and the natural type aggrecan are cleaved off at the site between Glu373-Ala374 ... by MDTS6Cys	the recombinant aggrecan G1G2 and the natural type aggrecan are cleaved off at the site between Glu373-Ala374 ... by MDTS6Cys	a band of 80 to 90 KDa was detected in the case of MDTS6Cys in addition to a band of about 150 KDa
B4	–	the aggrecanase activity was not detected in the culture supernatants in which MDTS6Pro and MDTS6Dis were expressed	–	–	–
